Measurements taken from article doi:10.1101/2020.10.23.352708.

Assays:
Assay in all cases: flow cytometry on cells
[1] = biological target: CXCR4 D97E (human) (UniProt P61073)
[2] = biological target: CXCR4 V112L (human) (UniProt P61073)
[3] = biological target: CXCR4 L41A (human) (UniProt P61073)

fold reduction of the binding affinity against wild-type CXCR4 [1]: 20 fold
fold increase of the IC50 against wild-type CXCR4 [2]: 6 fold
fold increase of the IC50 against wild-type CXCR4 [3]: 20 fold
Substance: Endogenous Peptide Inhibitor of CXCR4 (EPI-X4)
